Source: patent US20180251524A1 (published 2018)

B1: EpCAM (receptor)
chain: QEECVCENYKLAVNCFVNNNRQCQCTSVGAQNTVICSKLAAKCLVMKAEMNGSKLGRRAKPEGALQNNDGLYDPDCDESGLFKAKQCNGTSMCWCVNTAGVRRTDKDTEITCSERVRTYWIIIELKHKAREKPYDSKSLRTALQKEITTRYQLDPKFITSILYENNVITIDLVQNSSQKTQNDVDIADVAYYFEKDVKGESLFHSKKMDLTVNGEQLDLDPGQTLIYYVDEKAPEFSMQGLK
modifications: biotinylated (site not stated)
B2: MCF-7 Cells (receptor)
chain: QEECVCENYKLAVNCFVNNNRQCQCTSVGAQNTVICSKLAAKCLVMKAEMNGSKLGRRAKPEGALQNNDGLYDPDCDESGLFKAKQCNGTSMCWCVNTAGVRRTDKDTEITCSERVRTYWIIIELKHKAREKPYDSKSLRTALQKEITTRYQLDPKFITSILYENNVITIDLVQNSSQKTQNDVDIADVAYYFEKDVKGESLFHSKKMDLTVNGEQLDLDPGQTLIYYVDEKAPEFSMQGLKAGVIAVIVVVVIAVVAGIVVLVISRKKRMAKYEKAEIKEMGEMHRELNA

Experiments:
Clone 3.2.20 = test: yeast display flow cytometry titration; apparent
Clone 3.2.16 = test: yeast display flow cytometry titration; estimated
Clone 3.2.17 = test: yeast display flow cytometry titration; estimated
Clone 3.2.1 = test: yeast display flow cytometry titration; estimated
Clone 3.2.22 = test: yeast display flow cytometry titration; estimated
1DD-Fn-v4 Monomers = test: flow cytometry titration on cells; apparent

| Binder | Kd (Clone 3.2.20) | Kd (Clone 3.2.16) | Kd (Clone 3.2.17) | Kd (Clone 3.2.1) | Kd (Clone 3.2.22) | Kd (1DD-Fn-v4 Monomers) |
| --- | --- | --- | --- | --- | --- | --- |
| B1 | 140 nM | 150 nM | 130 nM | 190 nM | 190 nM |  |
| B2 |  |  |  |  |  | 34.8 nM |
